The results in this text go back to US20050025777A1, “Particle-mediated delivery of antigens” (priority 1994, published 2005).

Series [1] can be described thus: Induction of cytotoxic cellular response by HIV gp 120 peptide. To be noted: in vivo.
Series [2] has as its target Human Alpha 1 Anti-Trypsin Protein (Homo sapiens, UniProt P01009). Description: Antibody responses to human alpha 1 anti-trypsin protein after immunization. The class given is in vivo, mice.
Setting [3] is: Accell (no adjuvant), prime + 1 boost.
[4] abbreviates: Accell (no adjuvant), prime only.

Values joined by “and” are separate entries in the source; they are usually repeats but may differ in a detail not shown here. Equal entries are not always repeated.

Sequence of Human Alpha 1 Anti-Trypsin Protein (P01009 25-418): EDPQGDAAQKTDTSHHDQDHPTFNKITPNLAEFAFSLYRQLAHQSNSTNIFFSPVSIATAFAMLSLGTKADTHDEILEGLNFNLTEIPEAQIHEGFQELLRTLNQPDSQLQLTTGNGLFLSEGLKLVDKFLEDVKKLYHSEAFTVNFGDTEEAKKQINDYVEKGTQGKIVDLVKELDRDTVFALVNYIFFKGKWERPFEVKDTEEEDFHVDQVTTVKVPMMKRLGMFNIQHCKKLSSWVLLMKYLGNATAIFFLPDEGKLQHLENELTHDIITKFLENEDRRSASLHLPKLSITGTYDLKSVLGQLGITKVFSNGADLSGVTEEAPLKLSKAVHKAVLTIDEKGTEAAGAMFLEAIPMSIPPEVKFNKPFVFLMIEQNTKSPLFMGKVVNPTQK

`CC[C@H](C)[C@H](NC(=O)[C@@H](NC(=O)[C@@H](NC(=O)[C@H](Cc1ccccc1)NC(=O)[C@H](C)NC(=O)[C@H](CCCNC(=N)N)NC(=O)CNC(=O)[C@@H]1CCCN1C(=O)CNC(=O)[C@H](CCCNC(=N)N)NC(=O)[C@H](CCC(N)=O)NC(=O)[C@@H](NC(=O)[C@@H](N)CCCNC(=N)N)[C@@H](C)CC)C(C)C)[C@@H](C)O)C(=O)NCC(=O)N[C@@H](CCCCN)C(=O)O` [HIV gp 120]: the “regimen required to induce a cytotoxic cellular response” value in series [1] is reported as “a single dose, i.e. the prime, is all that is required”.
Take “Human Alpha 1 Anti-Trypsin Protein: Human Alpha 1 Anti-Trypsin Protein used as immunogen”: the “number with detectable antibody/total number tested” value is 4/4 in series [2] (setting [3]); 4/4 in series [2] (setting [4]); 4/4 in series [2] (injection with Freund's adjuvant, prime + 1 boost); 4/4 in series [2] (injection with Freund's adjuvant, prime only). For the same compound, the reciprocal antibody titers was 9500 and 6500 and 5500 in series [2] (setting [3]); 350 and 375 and 210 and 250 in series [2] (setting [4]).
